Target: hTEM8-AP (UniProt Q9H6X2)
Assay: Biacore affinity measurement of Fab

hTEM8-AP, sequence (Q9H6X2 33-321): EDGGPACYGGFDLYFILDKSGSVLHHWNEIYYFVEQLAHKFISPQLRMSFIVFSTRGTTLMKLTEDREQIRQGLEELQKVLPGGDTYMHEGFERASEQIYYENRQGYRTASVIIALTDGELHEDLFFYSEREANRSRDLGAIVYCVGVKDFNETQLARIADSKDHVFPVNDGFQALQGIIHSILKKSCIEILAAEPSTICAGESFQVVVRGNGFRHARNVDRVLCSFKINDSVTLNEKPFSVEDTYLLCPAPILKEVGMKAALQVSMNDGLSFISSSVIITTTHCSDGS

Kd: 0.0591 nM
koff: 0.00018 s⁻¹
kon: 3.05e+06 M⁻¹ s⁻¹
B1: M825 Fab (anti-TEM8 fragment antigen-binding) (Fab, V domains shown)
VH: QVQLVQSGAEVKKPGTSVKVSCKVPGYTFSSYAISWVRQAPGQGLEWMGGIIPIFGTTNYAQKFQGRVTITGEESTSTVYMELSSLRSEDTAVYYCARDTDYMFDYWGQGTLVTVSS
VL: SSELTQDPVVSVALGETVSITCQGDNLRDFYASWYQQKPGQAPLLVMYGKNRRPSGIPDRFSGSTSGNTLSLTITGAQAEDEADYYCSSRDNSKHVVFGGGTKVTVL

— patent US20170112926A1
